Data as given in patent publication CN113150152A (UNIV XI AN JIAOTONG, dated 2021).

How the values were obtained:
[1] = biological target: T1, 人TIM-3重组蛋白 (T cell immunoglobulin domain and mucin domain-3) (human, UniProt Q8TDQ0 22-202, limits assumed); assay: ELISA, coated TIM-3 recombinant protein, serially diluted nanobody, anti-his detection, GraphPad least-squares fit
T1 construct: Recombinant protein coated on 96-well plates; The construct is not described; also called TIM-3蛋白

[2] = biological target: T1, 人TIM-3重组蛋白 (T cell immunoglobulin …); assay: same number as the ELISA EC50 of paragraph 67, here called KD

B1: NbR2G3 (抗人源T细胞表面抑制性分子TIM-3的特异性纳米抗体) (VHH)
VHH: QVQLVESGGGLVQAGGSLRLSCAASGRTISNYNMGWFRQAPGKEREFAAITRSGGSTYYADSAKGRFTISRDNAKNTVYLQMNSLKPDDTAVYYCDAIPEGLVGRNLGYWGQGTQVTVSS
- EC50 [1]: 76 nM
- Kd [2]: 76 nM
